Source: patent publication US7491523B2, “Voltage-dependent calcium channel beta subunit functional core” (priority 2004, dated 2009)
fluorescein = fluorescein label

Legend:
β = settings: AID with β; cited from earlier work
Cav1.2 (α1C) = target: T1, Cav1.2 (α1C) (Homo sapiens, UniProt Q13936); assay: Two-electrode voltage clamp of Xenopus oocytes expressing Cav1.2, microinjected with β proteins; type: cell-based, Xenopus laevis; settings: for current amplitude increase and change of steady-state activation: Cav1.2 currents, protein injection into oocytes; for Current amplitude, I at 20 mV / Current amplitude, I at 30 mV: Xenopus oocytes, α1.2, mean ± SEM; for Steady-state activation, V1/2 (membrane potential for half-maximal activation) / Steady-state activation, k (slope factor): from I-V curve, mean ± SEM
T1 construct: expressed in transfected cells; host or cells: Xenopus laevis oocytes, mRNA injection
T1 sequence (Q13936 whole entry, species assumed): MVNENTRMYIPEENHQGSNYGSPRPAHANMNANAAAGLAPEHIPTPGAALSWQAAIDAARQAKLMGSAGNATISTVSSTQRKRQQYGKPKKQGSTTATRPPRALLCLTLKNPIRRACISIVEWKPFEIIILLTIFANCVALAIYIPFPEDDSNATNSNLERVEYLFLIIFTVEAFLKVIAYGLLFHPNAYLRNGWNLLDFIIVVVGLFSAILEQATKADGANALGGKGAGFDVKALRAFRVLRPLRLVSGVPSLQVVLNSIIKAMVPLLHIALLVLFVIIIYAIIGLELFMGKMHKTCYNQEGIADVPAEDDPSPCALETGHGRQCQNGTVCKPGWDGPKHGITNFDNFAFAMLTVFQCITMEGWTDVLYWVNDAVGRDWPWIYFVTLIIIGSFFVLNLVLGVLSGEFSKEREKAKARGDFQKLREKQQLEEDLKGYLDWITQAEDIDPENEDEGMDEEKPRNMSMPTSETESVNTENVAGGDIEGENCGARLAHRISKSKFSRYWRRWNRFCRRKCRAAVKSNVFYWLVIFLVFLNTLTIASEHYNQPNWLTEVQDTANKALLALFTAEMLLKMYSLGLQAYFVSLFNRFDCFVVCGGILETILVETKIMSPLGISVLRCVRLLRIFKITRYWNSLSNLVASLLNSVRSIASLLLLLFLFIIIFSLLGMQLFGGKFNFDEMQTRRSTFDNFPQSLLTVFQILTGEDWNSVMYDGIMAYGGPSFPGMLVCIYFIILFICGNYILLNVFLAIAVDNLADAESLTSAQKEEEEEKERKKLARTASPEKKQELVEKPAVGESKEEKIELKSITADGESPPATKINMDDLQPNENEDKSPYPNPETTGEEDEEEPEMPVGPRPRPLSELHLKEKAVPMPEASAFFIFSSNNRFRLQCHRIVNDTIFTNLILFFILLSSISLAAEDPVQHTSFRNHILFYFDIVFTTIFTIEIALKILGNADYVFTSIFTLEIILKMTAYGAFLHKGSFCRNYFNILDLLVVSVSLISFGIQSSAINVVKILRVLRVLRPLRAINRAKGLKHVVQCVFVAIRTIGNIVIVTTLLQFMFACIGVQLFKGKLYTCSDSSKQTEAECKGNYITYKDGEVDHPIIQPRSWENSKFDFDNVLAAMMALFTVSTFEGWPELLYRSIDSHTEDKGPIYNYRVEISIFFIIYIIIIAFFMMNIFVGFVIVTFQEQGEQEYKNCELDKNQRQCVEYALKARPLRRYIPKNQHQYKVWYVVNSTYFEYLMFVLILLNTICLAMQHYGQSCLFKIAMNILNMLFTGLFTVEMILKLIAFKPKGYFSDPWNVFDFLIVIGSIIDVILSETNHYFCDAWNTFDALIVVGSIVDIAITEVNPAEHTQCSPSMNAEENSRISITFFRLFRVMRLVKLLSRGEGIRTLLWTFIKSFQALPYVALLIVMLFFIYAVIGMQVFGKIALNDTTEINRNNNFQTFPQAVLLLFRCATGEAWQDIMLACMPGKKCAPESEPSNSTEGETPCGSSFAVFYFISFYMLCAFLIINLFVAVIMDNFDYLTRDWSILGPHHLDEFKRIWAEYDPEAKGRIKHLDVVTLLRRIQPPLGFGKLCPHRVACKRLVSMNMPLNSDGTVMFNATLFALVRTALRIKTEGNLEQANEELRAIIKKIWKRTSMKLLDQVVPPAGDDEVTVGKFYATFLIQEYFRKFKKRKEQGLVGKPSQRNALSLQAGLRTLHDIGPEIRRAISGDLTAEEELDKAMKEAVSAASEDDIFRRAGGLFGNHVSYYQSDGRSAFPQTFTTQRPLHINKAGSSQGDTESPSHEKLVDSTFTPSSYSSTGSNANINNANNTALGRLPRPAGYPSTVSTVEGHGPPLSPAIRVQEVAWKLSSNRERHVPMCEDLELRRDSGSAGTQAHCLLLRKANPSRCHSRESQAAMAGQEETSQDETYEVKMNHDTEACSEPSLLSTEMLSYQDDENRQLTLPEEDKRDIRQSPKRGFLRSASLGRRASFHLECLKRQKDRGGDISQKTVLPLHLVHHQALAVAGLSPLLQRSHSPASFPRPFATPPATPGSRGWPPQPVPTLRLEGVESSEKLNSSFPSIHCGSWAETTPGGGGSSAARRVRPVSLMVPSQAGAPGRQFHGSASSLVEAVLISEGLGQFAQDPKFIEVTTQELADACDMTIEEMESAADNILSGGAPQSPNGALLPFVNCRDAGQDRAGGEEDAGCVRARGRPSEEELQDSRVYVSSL
Method: Preparation of Xenopus laevis oocytes, injection of mRNA of VDCC subunits, and electrophysiological recording and analysis were performed, as described (Kang, M. G., Chen, C. C., Felix, R., Letts, V. A., Frankel, W. N., Mori, Y., and Campbell, K. P. (2001) J Biol Chem 276, 32917-32924). The negative control group were oocytes expressing CaV1.2 (α1C) subunit only by mRNA injection followed by injection of protein buffer (PB). The positive control group were oocytes expressing α1C and β3 subunits by mRNA injection, followed by injection of protein buffer (PB). The oocytes of experimental groups were injected with α1C mRNA followed by injection of VDCC β proteins, two days after the mRNA injection. Injection of protein ([…] of protein per oocyte) was performed similarly as mRNA injection. Oocytes injected with VDCC β proteins were incubated one more day and the expressed calcium channel currents were recorded using the two-electrode voltage-clamp technique.
In order to determine that the bacterially expressed, recombinant proteins were physiologically active, two-electrode, two-voltage-clamp measurements of Xenopus oocytes expressing α1 and microinjected with our protein samples was performed. […] The current amplitude increase and change of steady-state activation are statistically significant in all experimental groups except a group injected with β2a domain I protein.

[1] = target: T2, fluorescein-labeled AID peptide (AID motif of the CaV1.1 I-II linker) (Oryctolagus cuniculus, UniProt P07293, M367N); assay: AID peptide binding assay (fluorescence polarization): VDCC β constructs titrated against labeled AID peptide; settings: identical protein amounts, after incubation with TEV protease, FIG. 6c
T2 construct: fluorescein label (chemical, on the amino-terminus); made in house; host or cells: synthetic peptide, HPLC-purified
T2 sequence (P07293 with tags, fused parts or gaps M367N): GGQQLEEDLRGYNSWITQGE
Excerpt: Fluorescence polarization was used to determine the equilibrium dissociation constant (KD) for the interaction between a fluorescein-labeled AID peptide, purified and various VDCC β constructs. The synthetic peptide was purified by HPLC reverse chromatography using a C18 column (Vydac) with a shallow acetonitrile gradient 20-80% (both solvents were supplemented with 0.05% trifluoracetic acid). Its sequence is derived from the AID motif of: the CaV1.1 I-II linker and is as follows: fluorescein-[…]-COOH (SEQ ID NO: 14). A mutant peptide, fluorescein-[…]-COOH (SEQ ID NO: 15) was prepared, in addition. […] Polarization measurements were taken with an ISS K2 fluorescence spectrophotometer at excitation and emission wavelengths of 492 and 520 nm, respectively, at 20° C., maintained by a temperature-controlled water bath. […] Binding isotherms for the various samples were measured three independent times. Binding data were analyzed in SigmaPlot (SPSS) by nonlinear regression used to fit a binding function as defined by the following equation: […]
where X is the concentration of free ligand, ΔP is the change in fluorescence polarization of the fluorophore (baseline polarization of the labeled peptide alone was subtracted), Bmax is the maximum change in polarization upon saturation and KD is the concentration of ligand required to reach half maximal binding. […]

β2a protein [2] = target: T3, β2a protein (Oryctolagus cuniculus, UniProt P54288, P148R); settings: single amino acid change Y to S; cited from earlier work
T3 construct: Equilibrium isotherm titrations were performed with full-length β2a and linkerless core β2a; 8xHis tag followed by a TEV protease site (N, cleaved yes); made in house; host or cells: E. coli BL-21 Tuner with RIL Codon Plus plasmid, modified pET21 vector
T3 sequence (P54288 2-606 isoform P54288-2 P122R): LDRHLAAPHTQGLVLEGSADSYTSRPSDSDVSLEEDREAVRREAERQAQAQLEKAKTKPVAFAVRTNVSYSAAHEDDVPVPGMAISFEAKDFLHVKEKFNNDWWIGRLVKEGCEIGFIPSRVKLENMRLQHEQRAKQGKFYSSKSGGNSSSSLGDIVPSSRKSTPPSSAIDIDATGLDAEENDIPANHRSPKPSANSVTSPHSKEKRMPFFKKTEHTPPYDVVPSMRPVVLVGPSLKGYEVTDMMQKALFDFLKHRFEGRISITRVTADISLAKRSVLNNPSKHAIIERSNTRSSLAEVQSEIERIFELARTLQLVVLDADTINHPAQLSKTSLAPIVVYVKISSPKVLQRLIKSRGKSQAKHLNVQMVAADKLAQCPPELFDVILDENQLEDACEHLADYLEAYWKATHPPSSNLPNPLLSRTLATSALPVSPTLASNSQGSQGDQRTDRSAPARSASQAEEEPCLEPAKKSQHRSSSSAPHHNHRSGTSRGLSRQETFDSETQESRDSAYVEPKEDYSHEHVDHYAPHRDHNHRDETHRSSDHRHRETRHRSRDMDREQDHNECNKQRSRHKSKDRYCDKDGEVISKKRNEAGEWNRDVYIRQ

β2a protein [3] = target: T4, β2a protein (Oryctolagus cuniculus, UniProt P54288); assay: AID peptide binding assay (fluorescence polarization): AID peptide variants against β2a; design: species or system rabbit; settings: up to 350 nM β2a protein
T4 construct: Equilibrium isotherm titrations were performed with full-length β2a and linkerless core β2a; 8xHis tag followed by a TEV protease site (N, cleaved yes); made in house; host or cells: E. coli BL-21 Tuner with RIL Codon Plus plasmid, modified pET21 vector
T4 sequence (P54288 2-606 isoform P54288-2 P122R): as above
Excerpt: Fluorescence polarization was used to determine the equilibrium dissociation constant (KD) for the interaction between a fluorescein-labeled AID peptide, purified and various VDCC β constructs. The synthetic peptide was purified by HPLC reverse chromatography using a C18 column (Vydac) with a shallow acetonitrile gradient 20-80% (both solvents were supplemented with 0.05% trifluoracetic acid). Its sequence is derived from the AID motif of: the CaV1.1 I-II linker and is as follows: fluorescein-[…]-COOH (SEQ ID NO: 14). A mutant peptide, fluorescein-[…]-COOH (SEQ ID NO: 15) was prepared, in addition. Increasing concentrations of protein were incubated with 0.5 nM labeled peptide for 10 min in the dark at room temperature. Polarization measurements were taken with an ISS K2 fluorescence spectrophotometer at excitation and emission wavelengths of 492 and 520 nm, respectively, at 20° C., maintained by a temperature-controlled water bath. Polarization measurements were made with integration times on the order of 20 seconds, achieving a standard deviation of 5 percent of signal. Binding isotherms for the various samples were measured three independent times. Binding data were analyzed in SigmaPlot (SPSS) by nonlinear regression used to fit a binding function as defined by the following equation: […]

| Substance | koff (β) | current amplitude increase and change of steady-state activation (Cav1.2 (α1C)) | Current amplitude, I at 20 mV (Cav1.2 (α1C)) | Current amplitude, I at 30 mV (Cav1.2 (α1C)) | Steady-state activation, V1/2 (membrane potential for half-maximal activation) (Cav1.2 (α1C)) | Steady-state activation, k (slope factor) (Cav1.2 (α1C)) | relative binding to labeled AID peptide [1] | binding capability relative to WT (β2a protein [2]) | binding of AID peptide to β2a (β2a protein [3]) |
| --- | --- | --- | --- | --- | --- | --- | --- | --- | --- |
| AID: α1 interaction domain sequence of the α1 I-II linker that binds β | ~0.005 s⁻¹ | – | – | – | – | – | – | – | – |
| Core β2 Pro.: injected recombinant β2a core protein | – | corresponds well to full-length protein activity | −0.87 ± 0.09 A | -0.7 ± 0.07 µA | 6.84 ± 0.83 mV | 8.43 ± 0.23 mV | – | – | – |
| Core β3 Pro.: β3 core protein | – | – | -0.45 ± 0.04 µA | -0.41 ± 0.03 µA | 10.65 ± 4.46 mV | 10.06 ± 1.15 mV | – | – | – |
| Full β2 Pro.: injected recombinant full-length β2a protein, later found to contain mutation P122R | – | – | -0.71 ± 0.09 µA | -0.49 ± 0.06 µA | 3.68 ± 0.33 mV | 8.48 ± 0.53 mV | – | – | – |
| Full β3 Pro.: recombinant full-length rat VDCC β3 subunit protein | – | – | -0.47 ± 0.04 µA | -0.44 ± 0.03 µA | 10.03 ± 3.36 mV | 10.56 ± 0.42 mV | – | – | – |
| d1 + d2 β2 Pro.: domain I + domain II prepared by proteolysis of full length protein and subsequent purification | – | significant changes in the current amplitude and activation shift | -0.44 ± 0.04 µA | -0.34 ± 0.03 µA | 3.24 ± 0.93 mV | 9.49 ± 0.92 mV | – | – | – |
| domain II: β2a domain II released from NusA-domain II fusion by incubation with TEV protease | – | – | – | – | – | – | significant binding affinity for the AID | – | – |
| fluorescein-GGQQLEEDLRGSNSWITQGE-COOH (SEQ ID NO: 15) (fluorescein-GGQQLEEDLRGSNSWITQGE-OH; listed as Oryctolagus cuniculus) [mutant AID peptide, mutant AID peptide with single amino acid change Y to S] | – | – | – | – | – | – | – | less than five percent binding capability of WT | No binding |
| β2a domain I: recombinant β2a domain I, residues 25 to 146 | – | – | -0.16 ± 0.01 µA | -0.18 ± 0.02 µA | 24.00 ± 3.01 mV | 12.18 ± 0.49 mV | negligible | – | – |
